Test results: CN114106176A (SHENZHEN PHENPENG BIOTHERAPY CO LTD, dated 2022)

Target: T1, 人CD22胞外段缀合His标签 (hCD22-His, ACRO, CD2-H52H8) (human, UniProt P20273 20-687)
T1 construct: extracellular domain; Bought recombinant protein; also called 人类hCD22-His; not shown: His tag
T1 sequence (looked up): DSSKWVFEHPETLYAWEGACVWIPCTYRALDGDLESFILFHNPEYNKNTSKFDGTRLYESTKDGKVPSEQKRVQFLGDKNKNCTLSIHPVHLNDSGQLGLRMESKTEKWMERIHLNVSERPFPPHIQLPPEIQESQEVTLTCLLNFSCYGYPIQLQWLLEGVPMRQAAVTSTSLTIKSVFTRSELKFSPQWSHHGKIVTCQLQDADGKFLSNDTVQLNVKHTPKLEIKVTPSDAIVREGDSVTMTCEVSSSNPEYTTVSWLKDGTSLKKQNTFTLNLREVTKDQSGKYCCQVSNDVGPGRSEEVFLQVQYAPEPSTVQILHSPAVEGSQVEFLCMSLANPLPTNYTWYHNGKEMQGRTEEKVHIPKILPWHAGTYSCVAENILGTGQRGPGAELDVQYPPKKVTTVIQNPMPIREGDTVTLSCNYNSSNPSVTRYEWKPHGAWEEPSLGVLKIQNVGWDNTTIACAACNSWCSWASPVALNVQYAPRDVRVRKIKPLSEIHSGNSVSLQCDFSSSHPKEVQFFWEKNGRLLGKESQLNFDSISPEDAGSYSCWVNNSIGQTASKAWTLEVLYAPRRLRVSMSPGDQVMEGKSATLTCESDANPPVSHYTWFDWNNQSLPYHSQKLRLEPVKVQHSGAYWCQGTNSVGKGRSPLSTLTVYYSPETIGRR
Experiment: ELISA, hCD22-His coated at 2 ug/ml, 3-fold antibody dilutions

binding result: binds
B1: 5CD22-111-1-C3 (antibody, mouse IgG1, kappa, V domains shown)
VH: EVKLEESGGGLVQPGGFMKLSCVASGFTFSNYWMNWVRQSPERGLEWVAEIRLKSNDYATHYAESVKGRFTISRDDSKSNVYLQMNNLRAEDTGIYYCTRVYYYGRDYAMDYWGQGTSVTVSS
VL: QIVLTQSPAIMSASLGERVTMTCTASSSVSSIYLHWYQQKPGSSPKLWIYSTSNLASGVPGRFSGSGSGTSYSLTISSMEAEDAATYYCHQYHRSPRTFGGGTKLEIKR
